One assay deals with pancreatic cancer. Particulars: in combination with gemcitabine; cited from earlier work.
Assay [1] relates to advanced, treatment-refractory NSCLC. The conditions noted are these: patients with advanced; cited from earlier work.
The test system of another assay is carcinoma cells. The conditions noted are these: cited from earlier work.
Assay [2] deals with H1650 cells. Briefly: Doubling time of ligand-treated H1650 cells. The format is cell-based, human. Particulars: 7 days ligand, doubling time over following two weeks, versus untreated. The protocol: (§1) The human cell line, H1650 was cultured in […] containing 10% FBS, 2 mM L-Glutamine, and 1 mM sodium pyruvate, at 37° C., 5% CO2. Growth factor and cytokine induced EMT was monitored over 7 days. Growth factor and cytokines were obtained from commercial sources and used as follows: HGF (Hepatocyte growth factor) at 100 ng/ml, EGF (Epidermal Growth Factor) at 100 ng/ml, OSM (Oncostatin M) at 100 ng/ml, TGFβ1 (Transforming growth factor, beta 1) at 10 ng/ml, and TNFα (Tumor necrosis factor alpha) at 25 ng/ml.
Cells were plated and treated with ligand for 7 days. On day 7, cells were counted and re-plated on 6 cm cell culture dishes. On days 3, 5, 7, 10 and 12, cells were trypsinized and counted to determine the total number of cells in the dish, in duplicate. Doubling time was calculated using the multiple time point method on the website www.doubling-time.com.

Assay [3] concerns H1650 cells. The experiment in a line: qPCR of EMT gene changes in response to ligand treatment. The assay is classed as cell-based, human. Particulars: 7 days ligand, qPCR normalized to GAPDH and untreated control. The protocol: as §1
Cells were plated and treated with ligand for 7 days. At the time of harvest, cells were trypsinized and snap frozen for later use. Total RNA was isolated using RNAqueous-4 PCR Kit (Ambion, AM1914). Samples were DNase treated using the Turbo DNA-Free kit (Ambion, AM1907) and reverse transcribed using Superscript III (Invitrogen, 18080-044) for qPCR analysis. Taqman primers and Locked-Nucleic Acid probes were designed using ProbeFinder software (Universal Probe library, Roche). For mRNA analysis, real time PCR was performed using the ABI 7900HT series PCR machine. Thermocycle conditions were as follows: 50° C. for 2 minutes, 95° C. for 10 minutes, 95° C. for 15 seconds, 50° C. for 10 seconds, 60° C. for 1 minute. Data was collected over 45 cycles and then normalized to GAPDH and further normalized to the untreated control sample.
For orientation: In qPCR the cycle at which signal appears reflects the starting amount.

In assay [4] the test system is H1650 cells. The experiment in a line: Induction of EMT by growth factors and cytokines in 2D culture (immunoblot, morphology, confocal). The assay is classed as cell-based, human. Particulars: H1650 2D; 7 days; HGF, EGF, OSM 100 ng/ml, TGFβ1 10 ng/ml, TNFα 25 ng/ml. The procedure:
as §1
Cells were harvested by washing once with PBS, and lysing on ice for 10 minutes with scraping (using a Cell Lifter, Corning Inc. #3008) in ice cold RIPA buffer (Sigma R0278) containing Protease inhibitor (Sigma P8340), Phosphatase inhibitors (Sigma P2850, P5726) and 200 μM Sodium Vanadate. Supernatents were micro-centrifuged at max speed, 4° C. for 10 minutes. Protein content was quantitated using the BCA method (Pierce #23225) and samples were normalized to total protein in Laemli buffer and heated at 100° C. for 10 minutes. SDS PAGE was run using a Bis-Tris gel system (Invitrogen NuPAGE) with MOPS buffer (Invitrogen NP0001), transferred onto nitrocellulose using the iBLOT system (Invitrogen) and blocked in PBS-T (0.1% Tween 20), 5% non-fat milk or BSA in guidance with primary Ab supplier requirements. All primary antibodies were incubated overnight at 4° C. in PBS-T (0.1% Tween 20) in either 5% non-fat milk or BSA, diluted to the following working dilutions: anti E Cadherin (Santa Cruz #sc-21791) 1:500 dilution; anti Vimentin (BD Biosciences #550513) 1:2000 dilution;); 1:1000 dilution; anti β-Actin (Sigma, A5441) 1:10,000 dilution. Secondary HRP labeled antibodies used were: anti Rabbit IgG HRP (Amersham NA934) 1:5000 dilution; anti Mouse IgG HRP (Sigma A2304) 1:2000 dilution. Membranes were visualized using the Supersignal ELISA Femto Maximum Sensitivity Substrate (Pierce).
Cells were fixed in 4% paraformaldehyde (Electron Microscopy Sciences #15710)/PBS (Gibco#14190) for 10 minutes at room temperature, washed with PBS and permeabilized with 0.1% Triton X100 (Sigma P1379) in PBS for 10 minutes at room temp. Cells were blocked with 3% BSA/PBS for at least 15 minutes then incubated with primary antibody diluted in blocking buffer for a minimum of two hours at room temperature. Anti E-Cadherin was used at a 1:75 dilution and anti Vimentin (Millipore #AB5733) was used at a 1:2000 dilution. Cells were washed, incubated with fluorescently-labeled secondary antibodies for one hour, followed by a 5 minute TO-PRO3 nuclear counterstain (Invitrogen #T3605) at room temperature, washed and mounted on slides with Pro-Long Gold anti-fade reagent (Invitrogen #P36934). Secondary fluorescent antibodies used were: anti mouse 488 nm (Invitrogen #A11029) 1:600 dilution; anti chicken TRITC (Chemicon #AP194R) 1:50 dilution. Stained cells were captured on a Leica DMRXE microscope/SP2 scanner using Leica Confocal Software (LCS).
The ability of cell lines to undergo epithelial to mesenchymal transition (EMT) was investigated using different extracellular ligand drivers. A panel of NSCLC, pancreatic, and breast cancer cell lines were screened by treatment of cells for 7 days in presence of respective ligands, either singly or in combination. Initial screening determined the ability of the ligand to cause morphology change, to down-regulate the epithelial marker, E-cadherin or to up-regulate a mesenchymal marker such as vimentin. Potential EMT cell models should up-regulate a mesenchymal marker and display morphology change. More robust models would show a down-regulation of E-cadherin expression.

As to `C#Cc1cccc(Nc2ncnc3cc(OCCOC)c(OCCOC)cc23)c1` [erlotinib, [6,7-bis(2-methoxyethoxy)-4-quinazolin-4-yl]-(3-ethynylphenyl) amine], in the assay on pancreatic cancer, the “Survival, phase III first-line” value was “improves survival”. The “Clinical outcome, phase III monotherapy” value in assay [1] was “significantly prolonged survival, delayed disease progression and delayed worsening of lung cancer-related symptoms”. In addition, the “Cellular sensitivity after EMT-like transition” value in the assay with carcinoma cells is on record as “cellular insensitivity”.

B1: OSM: Oncostatin M, commercial cytokine used at 100 ng/ml (protein, UniProt P13725 26-221, looked up)
Oncostatin-M: AAIGSCSKEYRVLLGQLQKQTDLMQDTSRLLDPYIRIQGLDVPKLREHCRERPGAFPSEETLRGLGRRGFLQTLNATLGCVLHRLADLEQRLPKAQDLERSGLNIEDLEKLQMARPNILGLRNNIYCMAQLLDNSDTAEPTKAGRGASQPPTPTPASDAFQRKLEGCRFLHGYHRFMHSVGRVFSKWGESPNRSRR
For the molecule B1, the “Change in doubling time” value in the assay on H1650 cells [2] was “modest decrease”. In the assay on H1650 cells [3], the ACTN1 gene change entry is “NC (Fold changes less than 3 are reported as NC)”, the CDH1 gene change entry is recorded as “NC (Fold changes less than 3 are reported as NC)”, the CDH2 gene change entry was “NC (Fold changes less than 3 are reported as NC)” and the CLDN3 gene change entry was “NC (Fold changes less than 3 are reported as NC)”. In the assay on H1650 cells [3], the ERBB3 gene change entry is “NC (Fold changes less than 3 are reported as NC)”, the ITGB3 gene change is on record as 13.25 fold change, the MTA3 gene change entry is recorded as “NC (Fold changes less than 3 are reported as NC)” and the OCLN gene change result is “NC (Fold changes less than 3 are reported as NC)”. In the assay with H1650 cells [3], the PLAUR gene change entry is given as “NC (Fold changes less than 3 are reported as NC)”, the SNAI1 gene change result is “NC (Fold changes less than 3 are reported as NC)”, the SNAI2 gene change came to 3.44 fold change and the SPARC gene change result is listed as “NC (Fold changes less than 3 are reported as NC)”. For the same molecule, in the assay with H1650 cells [3], the TJP3 gene change entry is listed as “NC (Fold changes less than 3 are reported as NC)”, the TWIST1 gene change entry is “NC (Fold changes less than 3 are reported as NC)”, the VCAN gene change was 3.88 fold change and the VIM gene change is given as 4.18 fold change. In the assay on H1650 cells [3], this molecule had a ZEB1 gene change of 3.15 fold change and a ZEB2 gene change of 4.43 fold change. The “Induction of EMT (E-cadherin, vimentin, morphology)” value in the assay with H1650 cells [4] is recorded as “do not stimulate EMT by themselves”.

The values are drawn from patent US8465912B2, “Methods for the identification of agents that inhibit mesenchymal-like tumor cells or their formation” (OSI Pharmaceuticals, LLC, priority 2009, dated 2013).
